In patent publication US20240382677A1 (Regeneron, published 2024):

T1: monkey PD-1 with mFc (monkey PD-1-mFc) (monkey)
T1 construct: also called monkey PD-1 dimer; MfPD-1 dimer
T1 chain: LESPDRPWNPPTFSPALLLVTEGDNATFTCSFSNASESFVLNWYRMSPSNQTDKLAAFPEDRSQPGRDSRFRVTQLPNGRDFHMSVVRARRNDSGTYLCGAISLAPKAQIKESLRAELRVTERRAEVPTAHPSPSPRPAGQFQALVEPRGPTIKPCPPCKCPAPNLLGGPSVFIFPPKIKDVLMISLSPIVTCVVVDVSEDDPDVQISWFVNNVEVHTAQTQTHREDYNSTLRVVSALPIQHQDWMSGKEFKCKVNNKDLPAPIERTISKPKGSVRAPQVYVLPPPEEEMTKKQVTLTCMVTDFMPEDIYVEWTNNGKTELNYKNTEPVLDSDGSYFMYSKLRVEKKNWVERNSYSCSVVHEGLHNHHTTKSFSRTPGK


How the values were obtained:
[1] = target: T1, monkey PD-1 with mFc (monkey PD-1-mFc); assay: SPR 25C, mAb captured
Experimental: (§1) Binding association and dissociation rate constants (ka and kd, respectively), equilibrium dissociation constants and dissociation half-lives (KD and t½, respectively) for antigen binding to purified anti-PD1 antibodies were determined using a real-time surface plasmon resonance biosensor assay on a Biacore 4000 or Biacore T200 instrument. […] Experiments were performed at 25° C. and 37° C. Kinetic association (ka) and dissociation (kd) rate constants were determined by processing and fitting the data to a 1:1 binding model using Scrubber 2.0c curve fitting software. Binding dissociation equilibrium constants (KD) and dissociative half-lives (t½) were then calculated from the kinetic rate constants as: KD (M)=kd/ka and t½ (min)=[ln 2/(60*kd)].

[2] = target: T1, monkey PD-1 with mFc (monkey PD-1-mFc); assay: SPR 37C, mAb captured;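 also: Real-time binding of antigen to purified anti-PD-1 antibodies, measured by surface plasmon resonance on a Biacore 4000 or T200 instrument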
Experimental: as §1

Row | Binder | t½ [1] [h] | 100 nM Monkey PD-1-mFc Bound [2] [RU] | 100 nM Monkey PD-1-mFc Bound [1] [RU] | t½ [2] [h] | Kd [1] [nM]
1 | H4xH9008P (antibody, V domains shown, human IgG4 Fc with 2 or more amino acid changes (US20100331527)) VH: EVQLVESGGGLVRPGGSLRLSCAASGFTFSTYAMAWVRQTPGKGLEGVSAIGGSGDSTYYVDSVKGRFTISRDNSKSTLFLQMNSLRAEDTAVYYCVKVRNYDGSFDIWGQGTMVTVSS VL: not shown | 3.33 | 98 | – | – | –
2 | H4H7795N2 (antibody, human IgG4 S228P, kappa, V domains shown, human IgG4 Fc) VH: EVQVVESGGGLVEPGRSLRLSCKASGFTFDDYAMHWVRQTPGKALEWVSGISWSGNNIGYADSVKGRFTISKDDAKNSLYLQMNSLRPEDTALYYCTKDISITGTLDAFDVWGQGTMVTVSS VL: DIQMTQSPISVSASVGDRVTITCRASQGISNWLAWYQQKPGIAPKLLIYSASSLQSGVPSRFRGSGSGTDFTLTIGSLQPEDFATYYCQQAHSFPLTFGGGTKVEIKR | 1.93 | 47 | 60 | 0.667 | –
3 | H4H7798N (antibody, human IgG4 S228P, kappa, V domains shown, human IgG4 Fc; also called REGN2810; cemiplimab) VH: EVQLLESGGVLVQPGGSLRLSCAASGFTFSNFGMTWVRQAPGKGLEWVSGISGGGRDTYFADSVKGRFTISRDNSKNTLYLQMNSLKGEDTAVYYCVKWGNIYFDYWGQGTLVTVSS VL: DIQMTQSPSSLSASVGDSITITCRASLSINTFLNWYQQKPGKAPNLLIYAASSLHGGVPSRFSGSGSGTDFTLTIRTLQPEDFATYYCQQSSNTPFTFGPGTVVDFRR | 3.13 | 88 | 93 | 1.52 | –
4 | H4xH9035P (antibody, V domains shown) VH: EVQLVESGGRVVRPGGSLRLSCAASGFTFDDYGMSWVRQLPGKGLEWVAGISWNDGKTVYAESVKGRFIISRDNAKNSLHLEMNSLRAEDTALYYCARDWQYLIDRYFDFWGQGTLVTVSS VL: not shown | 1.93 | 40 | 78 | 0.317 | –
5 | H4xH9037P (antibody, V domains shown) VH: EVQLVESGGGLVQPGGSLRLSCAASGFTFDDYAMHWVRQAPGKGLEWVSGIGWSSGSIGYADSVKGRFTISRDNAKNSLYLQMDSLRPEDSALYYCAKAYTFMITLYFDYWGQGTLVTVSS VL: not shown | 1.4 | 24 | 58 | – | –
6 | H4xH9045P (antibody, V domains shown) VH: EVQLVESGGGLVQPGRSLRLSCAASGFTFDDYDMHWVRQAPGKGLEWVSGSGWNRGSLGYADSVKGRFTISRDNAKKSLYLQMNSVRVEDTALYYCAKGFVVVSAAYFDYWGQGTLVTVSS VL: not shown | 1.15 | 65 | 78 | 0.133 | –
7 | H4xH9048P2 (antibody, V domains shown) VH: QVQLVQSGAEVKRPGSSVKVSCKVSGVTFRNFAIIWVRQAPGQGLEWMGGIIPFFSAANYAQSFQGRVTITPDESTSTAFMELASLRSEDTAVYYCAREGERGHTYGFDYWGQGTLVTVSS VL: not shown | 1.05 | 84 | 115 | – | –
8 | H4H9057P2 (antibody, V domains shown) VH: EVQLVESGGGLVQSGRSLRLSCAASGFTFDDYAMHWVRQPPGKGLEWVSGINWNRGRTGYADSVKGRFTISRDNAKNSLYLQMNDLRVEDTALYYCAKAEQWLDEGYFDYWGQGTLVTVSS VL: not shown | 0.633 | 28 | 75 | 0.04 | 2.96
9 | H4xH8992P (antibody, V domains shown, human IgG4 Fc with 2 or more amino acid changes (US20100331527)) VH: EVQLVESGGGLVQPGRSLRLSCVASGFALHDYAMHWVRQVPGKGLEWVSSISWNSGVIGYADSLKGRFTISRDNAKNSLYLQMNSLRAEDTALYYCAKGSGSYYVSWFDPWGQGTLVTVSS VL: not shown | 0.767 | 86 | 122 | 0.133 | –
10 | H4xH8999P (antibody, V domains shown, human IgG4 Fc with 2 or more amino acid changes (US20100331527)) VH: QLQLQESGPGLVQPSETLSLTCTVSGDSISSTAYHWDWIRQPPGKGLEWIGTITYNGNTYFNPSLKSRVTISVDTSKNQFSLKLLSMTAAETAVFYCARHLGYNSDFFPFDFWGQGTLVTVSS VL: not shown | 1.67 | 83 | 128 | 0.383 | –
